Numbering of substitutions follows the chain as printed.
Assays:
[1] = biological target: T1, human IL-13 R130Q variant (R110Q of the mature chain) (human, UniProt P35225 35-146, Biotinylated on amines (NHS-LC-biotin, 4:1) in ELISA, panning and competition assays. The letters are unchanged.); assay: Ra2 binding inhibition ELISA, mAb in crude HEK293 supernatant, IL-13 binding to IL-13Ra2
T1 construct: R130Q counts from Met 1 of the signal peptide, R110Q on the mature chain; Bought from Peprotech; also called IL-13 R110Q; b-R130Q

[2] = biological target: T1, human IL-13 R130Q variant (R110Q of the …); assay: single-point (10 nM) phage Fab ELISA on biotinylated IL-13 R130Q

B1: mAb with Lc 1A05 (Lc6 variant) and Hc2 (antibody, V domains shown)
VH: QVTLKESGPVLVKPTETLTLTCTVSGFSLSTYGMGVGWIRQPPGKALEWLAHIWWDDVKRYNPALKSRLTISKDTSKSQVVLTMTNMDPVDTATYYCARMGSDYDVWFDYWGQGTLVTVSS
VL: EIVLTQSPATLSLSPGERATLSCRASKSISKYLAWYQQKPGQAPRLLIYSGSTLQSGIPARFSGSGSGTDFTLTISSLEPEDFAVYYCQQQDGPYTFGQGTKLEIK
notes: human IgG1; del = residue deleted
% Ra2 Binding Inhibition [1]: 82.7%

B2: Phage # 62 Fab (IL-13-142 library) (Fab, V domains shown)
VH: B1 VH
VL: DIQMTQSPSTLSASVGDRVTITCRASKSISKYLAWYQQKPGKAPKLLIYSGSTLQSGVPSRFSGSGSGTEFTLTISSLQPDDFATYYCQQQDSPYTFGGGTKVEIK
notes: Fab on phage pIX; del = residue deleted
% of Lc16Hc7 [2]: 185%

B3: Phage # 33 Fab (IL-13-142 library) (Fab, V domains shown)
VH: B1 VH
VL: DIQMTQSPSTLSASVGDRVTITCRASKSISKYLAWYQQKPGKAPKLLIYSGSTLQSGVPSRFSGSGSGTEFTLTISSLQPDDFATYYCQQHDWGPYTFGGGTKVEIK
notes: Fab on phage pIX
% of Lc16Hc7 [2]: 124%

B4: Phage # 48 Fab (IL-13-142 library) (Fab, V domains shown)
VH: B1 VH
VL: B3 VL
notes: Fab on phage pIX
% of Lc16Hc7 [2]: 180%

B5: Phage # 68 Fab (IL-13-142 library) (Fab, V domains shown)
VH: B1 VH
VL: B2 VL with Q91H, S93F
notes: as for B2
% of Lc16Hc7 [2]: 398%

B6: mAb with Lc 2C09 (Lc6 variant) and Hc2 (antibody, V domains shown)
VH: B1 VH
VL: EIVLTQSPATLSLSPGERATLSCRASKSISKYLAWYQQKPGQAPRLLIYSGSTLQSGIPARFSGSGSGTDFTLTISSLEPEDFAVYYCQQHEWGPYTFGQGTKLEIK
notes: human IgG1
% Ra2 Binding Inhibition [1]: 87.6%

B7: mAb with Lc 2E01 (Lc6 variant, Table 8) and Hc2 (antibody, V domains shown)
VH: B1 VH
VL: B6 VL with E92N, W93E, G94A
notes: human IgG1
% Ra2 Binding Inhibition [1]: 53.9%

B8: mAb with Lc 1F03 (Lc6 variant, Table 8) and Hc2 (antibody, V domains shown)
VH: B1 VH
VL: B6 VL with E92D, W93R, G94D
notes: human IgG1
% Ra2 Binding Inhibition [1]: 57.6%

B9: Phage # 86 Fab (IL-13-142 library) (Fab, V domains shown)
VH: B1 VH
VL: B3 VL with W93T
notes: Fab on phage pIX
% of Lc16Hc7 [2]: 334%

B10: mAb with Lc 1E03 (Lc6 variant) and Hc2 (antibody, V domains shown)
VH: B1 VH
VL: B6 VL with E92L, W93L
notes: human IgG1
% Ra2 Binding Inhibition [1]: 61.5%

B11: mAb with Lc 2A01 (Lc6 variant) and Hc2 (antibody, V domains shown)
VH: B1 VH
VL: B6 VL with E92S, W93H
notes: human IgG1
% Ra2 Binding Inhibition [1]: 72.1%

B12: mAb with Lc 2A12 (Lc6 variant) and Hc2 (antibody, V domains shown)
VH: B1 VH
VL: B6 VL with E92D, W93P
notes: human IgG1
% Ra2 Binding Inhibition [1]: 78.5%

B13: Phage # 80 Fab (IL-13-142 library) (Fab, V domains shown)
VH: B1 VH
VL: B2 VL with S93Y
notes: as for B2
% of Lc16Hc7 [2]: 163%

B14: Phage # 84 Fab (IL-13-142 library) (Fab, V domains shown)
VH: B1 VH
VL: B3 VL with D92L, W93I, G94E
notes: Fab on phage pIX
% of Lc16Hc7 [2]: 186%

B15: Phage # 85 Fab (IL-13-142 library) (Fab, V domains shown)
VH: B1 VH
VL: B3 VL with D92M
notes: Fab on phage pIX
% of Lc16Hc7 [2]: 259%

B16: mAb with Lc 1B01 (Lc6 variant) and Hc2 (antibody, V domains shown)
VH: B1 VH
VL: B6 VL with E92S
notes: human IgG1
% Ra2 Binding Inhibition [1]: 77.6%

B17: Phage # 87 Fab (IL-13-142 library) (Fab, V domains shown)
VH: B1 VH
VL: B3 VL with D92S, W93L
notes: Fab on phage pIX
% of Lc16Hc7 [2]: 125%

B18: Phage # 88 Fab (IL-13-142 library) (Fab, V domains shown)
VH: B1 VH
VL: B3 VL with D92F
notes: Fab on phage pIX
% of Lc16Hc7 [2]: 193%

B19: Phage # 83 Fab (IL-13-142 library) (Fab, V domains shown)
VH: B1 VH
VL: B3 VL with W93M
notes: Fab on phage pIX
% of Lc16Hc7 [2]: 145%

B20: mAb with Lc 1C02 (Lc6 variant) and Hc2 (antibody, V domains shown)
VH: B1 VH
VL: B6 VL with E92V
notes: human IgG1
% Ra2 Binding Inhibition [1]: 68.4%

B21: mAb with Lc 1H02 (Lc6 variant) and Hc2 (antibody, V domains shown)
VH: B1 VH
VL: B6 VL with H91Q, E92D, W93I
notes: human IgG1
% Ra2 Binding Inhibition [1]: 81.7%

B22: mAb with Lc 2A03 (Lc6 variant) and Hc2 (antibody, V domains shown)
VH: B1 VH
VL: B6 VL with W93S
notes: human IgG1
% Ra2 Binding Inhibition [1]: 75.8%

B23: mAb with Lc 2C01 (Lc6 variant) and Hc2 (antibody, V domains shown)
VH: B1 VH
VL: B6 VL with E92S, W93I
notes: human IgG1
% Ra2 Binding Inhibition [1]: 67.7%

B24: mAb with Lc 1G02 (Lc6 variant, Table 8) and Hc2 (antibody, V domains shown)
VH: B1 VH
VL: B6 VL with E92S, G94A
notes: human IgG1
% Ra2 Binding Inhibition [1]: 55.2%

B25: Phage # 81 Fab (IL-13-142 library) (Fab, V domains shown)
VH: B1 VH
VL: B3 VL with W93V
notes: Fab on phage pIX
% of Lc16Hc7 [2]: 231%

B26: mAb with Lc 2E04 (Lc6 variant) and Hc2 (antibody, V domains shown)
VH: B1 VH
VL: B6 VL with H91P, E92L, W93E, G94A
notes: human IgG1
% Ra2 Binding Inhibition [1]: 56.6%

B27: Phage # 94 Fab (IL-13-142 library) (Fab, V domains shown)
VH: B1 VH
VL: B3 VL with W93L
notes: Fab on phage pIX
% of Lc16Hc7 [2]: 272%

B28: Phage # 93 Fab (IL-13-142 library) (Fab, V domains shown)
VH: B1 VH
VL: B3 VL with D92E, W93S
notes: Fab on phage pIX
% of Lc16Hc7 [2]: 223%

B29: mAb with Lc 2C04 (Lc6 variant) and Hc2 (antibody, V domains shown)
VH: B1 VH
VL: B6 VL with E92N, W93F
notes: human IgG1
% Ra2 Binding Inhibition [1]: 61.9%

B30: Phage # 82 Fab (IL-13-142 library) (Fab, V domains shown)
VH: B1 VH
VL: B3 VL with W93V, G94S
notes: Fab on phage pIX
% of Lc16Hc7 [2]: 342%

B31: mAb with Lc 2C05 (Lc6 variant) and Hc2 (antibody, V domains shown)
VH: B1 VH
VL: B6 VL with H91Q, E92D, W93L
notes: human IgG1
% Ra2 Binding Inhibition [1]: 83.8%

Reference: patent US20120045438A1 (Janssen / Centocor, published 2012)
